Laboratory results reported in WO2018225033A1.

Tests used:
FcyR = test: cell-based or functional assay
[1] = target: rabbit Fc-tagged recombinant extracellular human ICOS (human) (UniProt Q9Y6W8); test: SPR, Biacore; reference is human ICOS-L binding to dimeric human ICOS (FIG. 15B)
[2] = target: rabbit Fc-tagged recombinant extracellular human ICOS (human) (UniProt Q9Y6W8); test: SPR, Biacore T200, 1:1 kinetics model, rabbit Fc-tagged extracellular human ICOS

Chain of UniProt Q9Y6W8 (Q9Y6W8 21-140): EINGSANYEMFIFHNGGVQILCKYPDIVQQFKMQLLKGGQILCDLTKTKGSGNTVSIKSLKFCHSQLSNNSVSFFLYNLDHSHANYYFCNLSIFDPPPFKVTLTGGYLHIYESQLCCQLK

B1: H2L5 IgG4PE (antibody, V domains shown)
VH: QVQLVQSGAEVKKPGSSVKVSCKASGYTFTDYAMHWVRQAPGQGLEWMGLISIYSDHTNYNQKFQGRVTITADKSTSTAYMELSSLRSEDTAVYYCGRNNYGNYGWYFDVWGQGTTVTVSS
VL: EIVLTQSPATLSLSPGERATLSCSASSSVSYMHWYQQKPGQAPRLLIYDTSKLASGIPARFSGSGSGTDYTLTISSLEPEDFAVYYCFQGSGYPYTFGQGTKLEIK
IFN-γ induction in activated human PBMC assay (FcyR): > 2 fold
IFN-γ induction in modified mixed lymphocyte reaction (FcyR): > 2 fold
fold higher affinity than the ICOS-L/ICOS interaction [1]: 17 fold
Kd [2]: 1.34 nM
